Data as given in PMC10341550 (2023).

Target: ROCK2 (Homo sapiens, UniProt O75116)
Assay: competition fluorescence polarization

Sequence of ROCK2 (O75116 whole entry): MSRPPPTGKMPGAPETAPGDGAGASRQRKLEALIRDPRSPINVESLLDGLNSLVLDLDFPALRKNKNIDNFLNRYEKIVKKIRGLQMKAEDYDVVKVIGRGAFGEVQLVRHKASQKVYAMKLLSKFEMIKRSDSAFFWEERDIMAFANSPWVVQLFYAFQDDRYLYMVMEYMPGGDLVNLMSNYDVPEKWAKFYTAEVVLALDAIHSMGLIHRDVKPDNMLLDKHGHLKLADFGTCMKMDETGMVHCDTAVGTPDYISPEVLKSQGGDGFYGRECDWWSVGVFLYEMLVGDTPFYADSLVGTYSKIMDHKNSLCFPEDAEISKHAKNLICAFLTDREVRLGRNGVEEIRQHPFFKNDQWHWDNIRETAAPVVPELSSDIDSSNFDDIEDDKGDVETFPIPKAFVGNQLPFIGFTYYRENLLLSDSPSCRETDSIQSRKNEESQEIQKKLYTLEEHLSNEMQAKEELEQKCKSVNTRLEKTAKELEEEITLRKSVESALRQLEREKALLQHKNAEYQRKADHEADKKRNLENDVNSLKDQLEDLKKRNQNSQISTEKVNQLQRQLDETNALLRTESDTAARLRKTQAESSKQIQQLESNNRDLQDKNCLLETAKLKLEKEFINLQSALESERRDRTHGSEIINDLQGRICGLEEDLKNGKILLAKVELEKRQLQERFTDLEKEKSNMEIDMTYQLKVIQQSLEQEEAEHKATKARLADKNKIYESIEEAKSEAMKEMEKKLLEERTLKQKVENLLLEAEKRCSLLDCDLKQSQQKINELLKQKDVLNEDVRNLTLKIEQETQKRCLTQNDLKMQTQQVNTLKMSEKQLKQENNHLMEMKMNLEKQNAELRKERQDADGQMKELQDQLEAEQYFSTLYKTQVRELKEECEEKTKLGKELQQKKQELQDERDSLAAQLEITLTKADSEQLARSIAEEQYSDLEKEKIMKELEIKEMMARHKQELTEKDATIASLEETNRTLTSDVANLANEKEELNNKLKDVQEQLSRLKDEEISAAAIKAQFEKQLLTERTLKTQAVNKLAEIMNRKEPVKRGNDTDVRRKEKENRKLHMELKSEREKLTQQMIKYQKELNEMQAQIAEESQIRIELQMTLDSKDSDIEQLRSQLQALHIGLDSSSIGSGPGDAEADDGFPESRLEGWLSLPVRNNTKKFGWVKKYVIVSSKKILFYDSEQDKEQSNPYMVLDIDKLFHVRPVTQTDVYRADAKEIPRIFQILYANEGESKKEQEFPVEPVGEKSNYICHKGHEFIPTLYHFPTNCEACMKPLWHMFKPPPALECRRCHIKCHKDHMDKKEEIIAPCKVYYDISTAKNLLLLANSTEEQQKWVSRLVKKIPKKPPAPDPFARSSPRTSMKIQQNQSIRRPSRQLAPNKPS

Kd: 3.5 nM
Binder: ADRGLTTRPGSGLTNIKTEEISEVKMDAEFRHDSGYEVHHQKLVFFAEDV (BACE1 C-terminal peptide present) [APP 646-695]
